Measurements taken from patent US20100041597A1 (published 2010).

T1: PKC-ι (endogenous, human cell extracts) (human, UniProt P41743 2-596)
T1 construct: also called PKC-iota
T1 sequence (looked up): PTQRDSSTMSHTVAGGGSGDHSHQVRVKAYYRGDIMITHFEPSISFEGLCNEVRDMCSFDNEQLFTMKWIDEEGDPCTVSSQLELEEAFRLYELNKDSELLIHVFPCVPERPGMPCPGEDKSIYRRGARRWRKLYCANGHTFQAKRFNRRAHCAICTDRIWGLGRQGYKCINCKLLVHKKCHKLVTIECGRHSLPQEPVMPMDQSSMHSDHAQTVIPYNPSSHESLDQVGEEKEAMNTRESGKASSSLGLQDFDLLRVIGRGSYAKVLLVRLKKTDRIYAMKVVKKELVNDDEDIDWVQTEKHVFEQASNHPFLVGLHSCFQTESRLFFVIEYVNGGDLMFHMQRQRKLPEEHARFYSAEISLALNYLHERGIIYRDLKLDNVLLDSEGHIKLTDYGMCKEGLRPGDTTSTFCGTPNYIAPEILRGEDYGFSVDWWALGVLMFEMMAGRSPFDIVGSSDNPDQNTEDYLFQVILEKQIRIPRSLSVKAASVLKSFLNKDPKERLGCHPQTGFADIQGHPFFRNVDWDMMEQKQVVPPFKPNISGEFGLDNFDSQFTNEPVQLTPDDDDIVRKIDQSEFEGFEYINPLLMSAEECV

T2: PKC-ε (purified isoform) (Homo sapiens (Human), UniProt Q02156 1-737)
T2 construct: also called PKC-epsilon; PKCepsilon
T2 sequence: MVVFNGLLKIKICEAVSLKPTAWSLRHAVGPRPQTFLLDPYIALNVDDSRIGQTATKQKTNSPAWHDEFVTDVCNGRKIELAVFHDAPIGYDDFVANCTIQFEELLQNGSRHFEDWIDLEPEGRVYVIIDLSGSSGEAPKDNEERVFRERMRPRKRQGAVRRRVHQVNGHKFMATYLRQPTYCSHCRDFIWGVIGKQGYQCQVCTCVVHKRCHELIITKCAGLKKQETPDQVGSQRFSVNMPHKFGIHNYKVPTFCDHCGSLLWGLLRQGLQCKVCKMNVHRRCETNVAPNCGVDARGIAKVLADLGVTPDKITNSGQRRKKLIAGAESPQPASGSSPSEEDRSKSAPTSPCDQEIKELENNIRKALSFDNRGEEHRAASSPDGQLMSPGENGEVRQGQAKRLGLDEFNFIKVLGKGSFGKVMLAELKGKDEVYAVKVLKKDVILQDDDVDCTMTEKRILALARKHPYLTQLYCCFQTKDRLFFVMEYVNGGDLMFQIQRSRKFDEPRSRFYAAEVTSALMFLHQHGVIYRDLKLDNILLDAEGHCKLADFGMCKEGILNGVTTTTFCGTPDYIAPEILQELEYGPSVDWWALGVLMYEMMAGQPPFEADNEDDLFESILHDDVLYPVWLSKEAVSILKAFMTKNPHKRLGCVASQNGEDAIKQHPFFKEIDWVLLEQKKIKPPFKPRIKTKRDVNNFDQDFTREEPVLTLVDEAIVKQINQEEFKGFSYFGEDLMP

B1: PRE 7 (peptide)
peptide: Ac-ISIGILQNADK-NH2
notes: Synthetic peptide (retro form of PRE 4); also called peptide PRE 7
B2: PRE 6 (peptide)
peptide: Ac-KDANQLIGISI-NH2
notes: Synthetic peptide; also called peptide PRE 6
B3: PRE 13 (peptide)
peptide: Ac-RDAQNLI-NH2
notes: Synthetic peptide; also called peptide PRE 13; Ac-RDAQNLI-NH2
B4: PRE 3 (peptide)
peptide: Ac-AKGIQEVKGGDAQNLIGISI-NH2
notes: Synthetic peptide; also called peptide PRE 3
B5: PRE 11 (peptide)
peptide: Ac-RDAQNLIGISI-NH2
notes: Synthetic peptide; also called peptide PRE 11
B6: PRE 12 (peptide)
peptide: Ac-KDAQNLI-NH2
notes: Synthetic peptide; also called peptide PRE 12; Ac-KDAQNLI-NH2

Biological target: T1, PKC-ι (endogenous, human cell extracts)
Assay: Western-blot competition on cell extracts against the anti-PKC-ι primary antibody; band densitometry
Protocol: Binding efficiency and specificity of the peptides PRE 2, 3, 4, 5, 6, 7, 8, 9, 10, 11, 12 and 13 (see Table 3) was also tested using cytoplasmic extracts from different cell lines expressing appropriate PKC isoforms as described for Example 1. Briefly, the protein cytoplasmic extracts were separated by electrophoresis and transferred onto nitrocellulose membranes by standard Western blotting procedures. The bands on the Western blots were detected with matching primary antibodies and alkaline phosphatase conjugated secondary antibody. The bands were then scanned and the relative density measurements obtained.
This procedure to assess the binding characteristics of the PREs is based on competition binding of the PRE with the primary anti-isoform PKC specific antibodies. The lower the measured band density, the greater the binding of the PRE to the PKC isoform. The PREs were added at 10 and 20 times (10×, 20×) the primary antibody concentration, according to classical competition between antigenic peptide and primary antibody. The following cell lines (obtained from the ATCC) were used: H661—NCI human lung carcinoma NSCLC; MDAMB231—human highly invasive breast cancer cell line from pleural effusion; LS180—human colon adenocarcinoma; LnCAP—human prostate adenocarcinoma; CCD16Lu—human lung fibroblasts; Du145—human prostate carcinoma brain metastasis, and T24—human bladder carcinoma.

Row | Binder | binding result
1 | B1 | no binding (tested: 20X the primary antibody concentration)
2 | B2 | no binding (tested: 20X the primary antibody concentration)
3 | B3 | no binding (tested: 20X the primary antibody concentration)

Biological target: T2, PKC-ε (purified isoform)
Assay: competitive ELISA on purified PKC-ε vs anti-PKC-ε Ab; PRE 200 µM
Protocol: Greiner 96 well ELISA plates were coated with the appropriate PKC isoform diluted in PBSN (PBS with Calcium/Magnesium+0.05% Sodium azide w/w). 50 μL/well at 250 ng/mL was used. Control wells contained PBSN only. Plates were incubated overnight at 4° C.
The plates were washed 3 times with 200 μL of dH₂O per well, then 100 μL of blocking solution was added per well and the plate incubated for 1 h at 37° C. The washing steps with dH₂O were repeated and 50 μL of the appropriate PRE solution (PRE stock solution [20 mM in DMSO] diluted in PBSN) was added and the plate incubated for 1 h at room temperature.
50 μL of 1:1000 dilution of Alkaline Phosphatase (AP) conjugated antibody (anti-rabbit for all except zeta, which was anti-goat) was then added and the plate incubated for 1 h at room temperature. Washing with dH₂O was then repeated. Finally, 100 μL of pNPP solution in pNPP buffer (2 mM MgCl₂, 100 mM Sodium bicarbonate in water, pH 9.8) was added to all wells and incubated for 8 minutes for α, βI, βII ε, and ζ, or for 15-20 mins for […] (until sufficient coloration is observed). The reaction was stopped by addition of Stop solution (2N NaOH) and the absorbance at 405 nm was read on a Galaxy Plate reader.

Row | Binder | binding capacity (%)
4 | B1 | 3.78%
5 | B4 | 31%
6 | B5 | 9.84%
7 | B6 | 0%
8 | B3 | 0.85%
